{"source": "the DeepSol protein solubility set", "data": [{"test": "soluble on expression in E. coli; label from the status in PepcDB or PDB records", "values": [{"sequence": "MGSDKIHHHHHHVNVPTEFDINVLRADFDKTRLPRSRAQQMPGKMYTSSEVAALEKKRIFMDTWLCAGREEEIANPGDYMTREIASEPFVLSRDKEGKVHAFLNMCLHRGVPVAEGSGNARGFSCPYHAWYYDLQGTLLAAPLMEQSEANLKNCRLKPMRLALWRGWIFVSFNPDAMPFETFIAPFEENLWWFKSDECRLSERVVLQIDCNWKLLVENLIDIYHVPVLHKASFGGFLKSDKEKLSFNLLPRGGWYYEQKARPHSKSGQQLFPTLPWLEGMDSGTSMKAGIFPNLNLSLRFDSLRMWQVWPTSTGKSELHLYSLFMPAAFEDPDFQKHYEEYKSFLLGAIVNEDGPMVVKLQQAMGSEFYAPGPLSHLEGAVHHLMNYYLDVVSGEDRND", "soluble on expression in E. coli": "not soluble"}, {"sequence": "MTEIYEQAKHSLQGEDFSSFNYLFAVNKLLSNPVSYDLGRDLIVRALDSRERFSEHTTILKNMVRKSGLFPYLKKEFTSLTPDDLRVLELYRTPFSDGYVFHSMQFHIFDLLKSGQNVVLSAPTSMGKSAIVDSLLGMGTLKRLVLVVPTVALADETRRRLQERFGDRYQIIHHSSQVCHSDQAVYVLTQERVNERDDIVDIDLFVIDEFYKLAFRQLKSGDIDHQDERVIELNIALSKLLKVSRQFYLTGPFVNSIRGLEKLGYPHTFVSTDFNTVALDVKTFGIKANDDKAKLKALGEIAHACVDATIIYCKSPTVAGLVARELIRLGHGTPTENPHVDWVSEEFDADWDYTVALRNGIGLHFGALPRALQQYTADQFNAGKLRFLLCTSTIIEGVNTIAKNVVIYDNRDGTRSIDKFTHGNIKGRAGRMGVHFVGKIFCLEEIPEDNLNQEVDIPLGIQGIDTPINLLASVQPDHLSEFSQDRFDEVFINDRVSIDLVKKHSYFRVEQFEMLQSMFEMMDDNEFSSLVFHWTPATNFLKTFAKIIARLVPHTFSRNGVPVKPTDVMIAKLAGYLSAESYSEYLKNQIDYARQWISEGEKRTLSIALNNDLKLITNTFGYTLPKVLSLMEDVVKHHAVKRGIRSKVDYTHVKLAFESFHLPPGVNALEEIGIPIQTLHRLVDLLEFSDEADVDELSQYLRDTQDIWSRSIGYVDQMFIRRALGIRRH", "soluble on expression in E. coli": "not soluble"}, {"sequence": "AIAADRTVPHAYPMSMDYEMCTPPRIYDQNFAEALSPKELLAPVLYHGYYIRPRINKQLERGFSQVESEDDWYRVLLDVCQFTPDEISVRTVDNLLEVSARHAQRMDQHGFVSREFTRTYILPMGVDPLLVQVSLSHDGILCIQAPRKTEDLEPQINQLKIKVEKKESTSK", "soluble on expression in E. coli": "soluble"}, {"sequence": "TTPMNLTDAIAYILRPFAVLKVPVNDIALMISVALRFIPTLMGETDKIMKAQRARGVDFGEGNLFEQMKVVVPIFIPLFVSSFNRAEELADAMEARGYQGGEGRTRFRILH", "soluble on expression in E. coli": "not soluble"}, {"sequence": "TRDFMWRLGLNLTHYKNVVTDLPLKDMPVSGVHKLAVGRSVYDFYMKKWAGVDPENGDPLWYKNVKDANNKITGRTTTNDYAQADYYYTGKSSLPKVYGGFNTAFSYKGFELSTIFAYSIGNYIVDRDVTMLWHNGSSTGRAWSTEILNRWTPENRYTDVPALKTVSNSWNANSTRNLFNNSFLRMKNITLSYNFPQPMIKKISLNSLQLFVQADNLLTVSKNQGLDPEQDISGLTYYRYPAMRSISGGINVSF", "soluble on expression in E. coli": "not soluble"}, {"sequence": "MGSDKIHHHHHHMNILIKIRELTNLTNSEKELANYIVVNPKKTLQFKPKELAQAAFVSAATIYRLINKLGLNGIGELKIEIASSLRETNEEKEINYDYPILESDTPYQIMTNLNQIYKGTIDETLNNADPEELVKIGEKLIKAKTIDVYAASANLFFAQNFKFQMQEIGVLVNVPEEDYIQSLSAANSDKDHIAIVVSYGGRSRTLQRVVKILSENDVDIILITSMQANPLVEFATHKIYMASAENHYNKVSSFSTRQSLLSIFDTLYSVYFNHDYEKNIQYKTTNYQKMNSELE", "soluble on expression in E. coli": "not soluble"}, {"sequence": "MGSDKIHHHHHHMALTQLEQPLSPQPTPPDLRGYEYDLVIVGGGIIGLTLASALKDSGLSILLIEAKVASAAVAKGQAYAVHQLSALIYQGIGVWDKILPQIAKYRRVRLSDADYPNVVEFTTDDIHTAELGYVAEHQALLQPLQEFVQDCPNVTYLCPAEVVNTQYQKDIVAVDIKVADQLYTVRSKLLIAADGARSPIRQAAGIKTSGWKYWQSCIVAFVKPEKPHNNTAYERFWSSGPFAILPLPENRCRIVWTAPHEEAKALCALDDEQFLAELTRRYGDQMGKLELLGDRFVFQVQLMQSDRYVLPRLALIGDAAHNCHPVGGQGLNLGIRDAAALAQVIQTAHQAGKDIGDIQILKGYERWRKLENLTILGFTDLLDRMFSNNFLPVVVVRRLGLWFLQRVPLLKVFMLKLMIGLKGRTPELAKR", "soluble on expression in E. coli": "not soluble"}, {"sequence": "MAHHHHHHMIFIHSLRLRHNLVSKNVERCTVFAFLDADFITAIRHKVRELKRAARRQPHRSALEVYSQERPTRHHVLPPPHYFSEKVGVDCCVLYIPEVEDFPLLDAFFFVNSNPVTLVGLRMATAGEHHTTASTVRQFTECLAAYFNGWEELSRDMSWETIYVQHADSTPMNDWQRCDVVNSDNVSKKENREIVAFWEEEVHQYLAVISSADARRGEAL", "soluble on expression in E. coli": "not soluble"}, {"sequence": "MSLSNIHHLERSLRKLRLTRVGAEWHALEKRALAEGWTPSRYLLTLCNEELLWRESEKLRRYKKEARLPVAKTLSEYDFSQVPELNGAQFRQLCETTDWVDAGENVLLFGASGLGKSHLAAAIVDGVVGQGYRARFYSAGELLQELRKARAQLKLNELLLKLDRYRVIVVDDLGYVKRDSAETGVLFELIAHRYERGSLVITSNHPFSMWGSIFVDETMAVAAADRLIHHGYMFELKGESYRKKTAKAVTSATEGHHHHHH", "soluble on expression in E. coli": "soluble"}, {"sequence": "MGSDKIHHHHHHMKVLLTRPEGRNQQMADALTQLGIGYHLCPLLEITPSNTPPKASFFSADKLVFISANAVYFAANNLNNHFPMHCEYFAVGEATQMALAEYQVVSQSAPSSQQDSEGLLSLSQLQDVELQKITIVRGEGGRETLAQTLSERGANVDYWQVYQRSKPALDPKSVCQQWQDLGIDTLVLTSGEALANLMELVPKELFAWLRSCHMIVPSHRVQVQAISQGFHRVSNANGASTQAILTALAL", "soluble on expression in E. coli": "not soluble"}, {"sequence": "MSGVTAIEIPQWIQDNQEDFVPPVCNKCMFSDQLKVFYVGGPNQRKDFHLEEGEEFFFQRKGDMVLKVIEKGQVRDLVIKQGEMFMLPARVEHSPQRFSNSIGLVVERERKNTEFDCVRFLVGSSNITLFERWFYLTDVVKDLPPLIKEFYGSNEFKTGKPGKGTFACNAPYEARWTDLPVPINRKEFIYDHISEVKNGPVRIYGAPEYKTEVMLLGEGSYDLESGTVELLIWLQENTFAVVEESGFTYAMKSETMVRIKPNTKCLLNVKGGFAITIRMPA", "soluble on expression in E. coli": "not soluble"}, {"sequence": "DKKQLVLVLCASGATSSMLANAITKGAKQEGVNVESIAMAYGQHKDVIADYDLIILAPQMASMYEELKADCASKGTKSATTTGKEYVKLTRDPVGALKFALDIINE", "soluble on expression in E. coli": "not soluble"}]}]}
